# Measured values reported in the supplement of paper PMC9112550, “Optimization of the antimicrobial peptide Bac7 by deep mutational scanning” (BMC Biology, 2022).
# System: Escherichia coli TOP10
# Test: shrunken log2 fold change of peptide-encoding DNA abundance (4.5 h post-induction vs induction); higher = less antimicrobial activity (less host growth inhibition)
# Conditions: time post-induction: 4.5 h; library: site-saturation at positions 5, 18, 19, 20
# 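Further: peptides expressed intracellularly from a pBAD plasmid library in pooled LB shake-flask culture, induced with 0.3% L-arabinose, DNA abundance read by NGS, three biological replicates, DESeq2 with apeglm shrinkage.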
row,Sequence,shrunken log2 fold change
1,RRIRRRPPRLPRPRPRPTIMPRP,0.0494
2,RRIRRRPPRLPRPRPRPTKAPRP,0.372
3,RRIRRRPPRLPRPRPRPTKDPRP,0.209
4,RRIRRRPPRLPRPRPRPTLGPRP,0.138
5,RRIRRRPPRLPRPRPRPTMAPRP,0.392
6,RRIRRRPPRLPRPRPRPTPFPRP,0.632
7,RRIRRRPPRLPRPRPRPTPVPRP,0.969
8,RRIRRRPPRLPRPRPRPTQFPRP,0.384
9,RRIRRRPPRLPRPRPRPTQGPRP,0.935
10,RRIRRRPPRLPRPRPRPTREPRP,0.892
11,RRIRRRPPRLPRPRPRPTRPPRP,1.02
12,RRIRRRPPRLPRPRPRPTSEPRP,0.372
13,RRIRRRPPRLPRPRPRPTSPPRP,0.225
14,RRIRRRPPRLPRPRPRPTSRPRP,0.312
15,RRIRRRPPRLPRPRPRPTSWPRP,1.52
16,RRIRRRPPRLPRPRPRPTSYPRP,-0.0452
17,RRIRRRPPRLPRPRPRPTTFPRP,3.05
18,RRIRRRPPRLPRPRPRPTVIPRP,-0.168
19,RRIRRRPPRLPRPRPRPTVVPRP,0.0199
20,RRIRRRPPRLPRPRPRPTYFPRP,0.0897
21,RRIRRRPPRLPRPRPRPVADPRP,0.228
22,RRIRRRPPRLPRPRPRPVAFPRP,0.383
23,RRIRRRPPRLPRPRPRPVAGPRP,0.453
24,RRIRRRPPRLPRPRPRPVAQPRP,0.324
25,RRIRRRPPRLPRPRPRPVCVPRP,0.359

row,Sequence,shrunken log2 fold change
1,RRIRRRPPRLPRPRPRPVDSPRP,0.127
2,RRIRRRPPRLPRPRPRPVHDPRP,-0.305
3,RRIRRRPPRLPRPRPRPVHIPRP,-0.0107
4,RRIRRRPPRLPRPRPRPVHMPRP,2.19
5,RRIRRRPPRLPRPRPRPVKMPRP,0.101
6,RRIRRRPPRLPRPRPRPVKRPRP,0.457
7,RRIRRRPPRLPRPRPRPVMWPRP,0.0562
8,RRIRRRPPRLPRPRPRPVNNPRP,-0.12
9,RRIRRRPPRLPRPRPRPVPNPRP,0.353
10,RRIRRRPPRLPRPRPRPVQQPRP,0.213
11,RRIRRRPPRLPRPRPRPVRWPRP,0.825
12,RRIRRRPPRLPRPRPRPVTLPRP,0.0854
13,RRIRRRPPRLPRPRPRPVTQPRP,0.197
14,RRIRRRPPRLPRPRPRPVTTPRP,0.48
15,RRIRRRPPRLPRPRPRPVTYPRP,-0.0642
16,RRIRRRPPRLPRPRPRPVWCPRP,0.273
17,RRIRRRPPRLPRPRPRPVYKPRP,0.0922
18,RRIRRRPPRLPRPRPRPVYTPRP,0.0292
19,RRIRRRPPRLPRPRPRPWDCPRP,-0.033
20,RRIRRRPPRLPRPRPRPWDRPRP,0.26
21,RRIRRRPPRLPRPRPRPWERPRP,-0.0262
22,RRIRRRPPRLPRPRPRPWFDPRP,-0.064
23,RRIRRRPPRLPRPRPRPWFFPRP,0.08
24,RRIRRRPPRLPRPRPRPWGFPRP,0.315
25,RRIRRRPPRLPRPRPRPWIFPRP,0.0818

row,Sequence,shrunken log2 fold change
1,RRIRRRPPRLPRPRPRPWKFPRP,-0.0344
2,RRIRRRPPRLPRPRPRPWLAPRP,0.35
3,RRIRRRPPRLPRPRPRPWNEPRP,-0.208
4,RRIRRRPPRLPRPRPRPWPHPRP,-0.0473
5,RRIRRRPPRLPRPRPRPWQAPRP,0.0707
6,RRIRRRPPRLPRPRPRPWQEPRP,0.00489
7,RRIRRRPPRLPRPRPRPWQFPRP,-0.0199
8,RRIRRRPPRLPRPRPRPWQSPRP,-0.0153
9,RRIRRRPPRLPRPRPRPWRGPRP,0.215
10,RRIRRRPPRLPRPRPRPWTWPRP,-0.008
11,RRIRRRPPRLPRPRPRPWYNPRP,-0.468
12,RRIRRRPPRLPRPRPRPWYTPRP,-0.637
13,RRIRRRPPRLPRPRPRPYARPRP,0.0203
14,RRIRRRPPRLPRPRPRPYECPRP,-0.0148
15,RRIRRRPPRLPRPRPRPYEQPRP,-0.214
16,RRIRRRPPRLPRPRPRPYFRPRP,-0.203
17,RRIRRRPPRLPRPRPRPYHTPRP,-1.28
18,RRIRRRPPRLPRPRPRPYIFPRP,-0.639
19,RRIRRRPPRLPRPRPRPYLAPRP,-0.185
20,RRIRRRPPRLPRPRPRPYLCPRP,-0.404
21,RRIRRRPPRLPRPRPRPYMIPRP,-0.263
22,RRIRRRPPRLPRPRPRPYMPPRP,-0.186
23,RRIRRRPPRLPRPRPRPYNKPRP,-0.664
24,RRIRRRPPRLPRPRPRPYPDPRP,-0.0558
25,RRIRRRPPRLPRPRPRPYQIPRP,0.022
